Test results taken from patent publication US20230220589A1.
Where a chain is given by its changes, count along the chain named.

Legend:
[1] = biological target: M44-modified S NTAA target peptides; test: encoding assay; P2 D
[2] = biological target: M44-modified T NTAA target peptides; test: encoding assay; P2 D;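 note: fraction of recording tags encoded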
[3] = biological target: M44-modified D NTAA target peptides; test: encoding assay; P2 D;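 note: fraction of recording tags encoded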
[4] = biological target: M44-modified V NTAA target peptides; test: encoding assay; P2 D;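 note: fraction of recording tags encoded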
[5] = biological target: M44-modified E NTAA target peptides; test: encoding assay; P2 D;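 note: fraction of recording tags encoded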
[6] = biological target: M44-modified H NTAA target peptides; test: encoding assay; P2 D;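 note: fraction of recording tags encoded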
[7] = biological target: M44-modified P NTAA target peptides; test: encoding assay; P2 D;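 note: fraction of recording tags encoded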
[8] = biological target: M44-modified E NTAA target peptides; test: encoding assay; P2 W;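 note: fraction of recording tags encoded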
[9] = biological target: M44-modified S NTAA target peptides; test: encoding assay; P2 G
[10] = biological target: M44-modified N NTAA target peptides; test: encoding assay; P2 G
[11] = biological target: M44-modified H NTAA target peptides; test: encoding assay; P2 G;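 note: fraction of recording tags encoded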
[12] = biological target: M44-modified A NTAA target peptides (M44-A-P2-peptide); test: encoding assay; P2 G;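 note: fraction of recording tags encoded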
[13] = biological target: M17-modified W NTAA target peptides; test: encoding assay; P2 D;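 note: fraction of recording tags encoded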
[14] = biological target: M17-modified E NTAA target peptides; test: encoding assay; P2 D;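 note: fraction of recording tags encoded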
[15] = biological target: M17-modified F NTAA target peptides; test: encoding assay; P2 D;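 note: fraction of recording tags encoded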
[16] = biological target: M17-modified A NTAA target peptides; test: encoding assay; P2 D;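 note: fraction of recording tags encoded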
[17] = biological target: M17-modified Y NTAA target peptides (M17-Y-P2-peptide); test: encoding assay; P2 D;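 note: fraction of recording tags encoded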
[18] = biological target: M17-modified N NTAA target peptides; test: encoding assay; P2 D;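 note: fraction of recording tags encoded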
[19] = biological target: M17-modified S NTAA target peptides; test: encoding assay; P2 D;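 note: fraction of recording tags encoded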
[20] = biological target: M17-modified L NTAA target peptides; test: encoding assay; P2 D;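 note: fraction of recording tags encoded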
[21] = biological target: M17-modified H NTAA target peptides; test: encoding assay; P2 D;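 note: fraction of recording tags encoded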
[22] = biological target: M17-modified Q NTAA target peptides; test: encoding assay; P2 D;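 note: fraction of recording tags encoded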
[23] = biological target: M17-modified G NTAA target peptides; test: encoding assay; P2 D;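 note: fraction of recording tags encoded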
[24] = biological target: M17-modified I NTAA target peptides; test: encoding assay; P2 D;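 note: fraction of recording tags encoded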
[25] = biological target: M17-modified T NTAA target peptides; test: encoding assay; P2 D;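 note: fraction of recording tags encoded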
[26] = biological target: M17-modified V NTAA target peptides; test: encoding assay; P2 D;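 note: fraction of recording tags encoded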
[27] = biological target: M17-modified P NTAA target peptides; test: encoding assay; P2 D;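 note: fraction of recording tags encoded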
[28] = biological target: M17-modified M NTAA target peptides; test: encoding assay; P2 D;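 note: fraction of recording tags encoded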
[29] = biological target: M17-modified D NTAA target peptides; test: encoding assay; P2 D;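 note: fraction of recording tags encoded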
[30] = biological target: M17-modified Y NTAA target peptides (M17-Y-P2-peptide); test: encoding assay; P2 F;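 note: fraction of recording tags encoded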
[31] = biological target: M17-modified W NTAA target peptides; test: encoding assay; P2 W;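 note: fraction of recording tags encoded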
[32] = biological target: M17-modified E NTAA target peptides; test: encoding assay; P2 W;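 note: fraction of recording tags encoded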
[33] = biological target: M17-modified F NTAA target peptides; test: encoding assay; P2 W;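 note: fraction of recording tags encoded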
[34] = biological target: M17-modified A NTAA target peptides; test: encoding assay; P2 W;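 note: fraction of recording tags encoded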
[35] = biological target: M17-modified Y NTAA target peptides (M17-Y-P2-peptide); test: encoding assay; P2 W;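 note: fraction of recording tags encoded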
[36] = biological target: M17-modified N NTAA target peptides; test: encoding assay; P2 W;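 note: fraction of recording tags encoded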
[37] = biological target: M17-modified S NTAA target peptides; test: encoding assay; P2 W;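 note: fraction of recording tags encoded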
[38] = biological target: M17-modified L NTAA target peptides; test: encoding assay; P2 W;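 note: fraction of recording tags encoded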
[39] = biological target: M17-modified H NTAA target peptides; test: encoding assay; P2 W;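 note: fraction of recording tags encoded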
[40] = biological target: M17-modified Q NTAA target peptides; test: encoding assay; P2 W;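 note: fraction of recording tags encoded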
[41] = biological target: M17-modified G NTAA target peptides; test: encoding assay; P2 W;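 note: fraction of recording tags encoded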
[42] = biological target: M17-modified I NTAA target peptides; test: encoding assay; P2 W;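 note: fraction of recording tags encoded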
[43] = biological target: M17-modified T NTAA target peptides; test: encoding assay; P2 W;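 note: fraction of recording tags encoded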
[44] = biological target: M17-modified V NTAA target peptides; test: encoding assay; P2 W;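 note: fraction of recording tags encoded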
[45] = biological target: M17-modified P NTAA target peptides; test: encoding assay; P2 W;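 note: fraction of recording tags encoded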
[46] = biological target: M17-modified M NTAA target peptides; test: encoding assay; P2 W;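 note: fraction of recording tags encoded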
[47] = biological target: M17-modified D NTAA target peptides; test: encoding assay; P2 W;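 note: fraction of recording tags encoded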
[48] = biological target: M17-modified S NTAA target peptides; test: encoding assay; P2 G;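 note: fraction of recording tags encoded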
[49] = biological target: M17-modified L NTAA target peptides; test: encoding assay; P2 G;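 note: fraction of recording tags encoded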
[50] = biological target: M17-modified H NTAA target peptides; test: encoding assay; P2 G;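 note: fraction of recording tags encoded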
[51] = biological target: M17-modified G NTAA target peptides; test: encoding assay; P2 G;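 note: fraction of recording tags encoded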
[52] = biological target: M17-modified T NTAA target peptides; test: encoding assay; P2 G;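 note: fraction of recording tags encoded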
[53] = biological target: M17-modified P NTAA target peptides; test: encoding assay; P2 G;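 note: fraction of recording tags encoded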
[54] = biological target: M17-modified D NTAA target peptides; test: encoding assay; P2 G;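 note: fraction of recording tags encoded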

B1: engineered M44-L binder (SEQ ID NO: 31) (designed binder, not shown: small tags and cut ends; large carriers)
chain: QDSTQNLIPAPPLISVPLQPGFWTERFQGRWFLVGFAGNAVQKERQSRLTMQSLILELQEDNSYNITAINVRGQGCRYIISTLVPSSRPGQFTLGNIHSYPQIQSLDVQVADTDYDQFAMVFLQGTSENKQYFEVALAGRTKGLSDELKERFVSFAKSLGLKDNNIVFSVPTDQCIDN
encoding yield [1]: 0.01
encoding yield [2]: 0.01
encoding yield [3]: 0.01
encoding yield [4]: 0.03
encoding yield [5]: 0.01
encoding yield [6]: 0.01
encoding yield [7]: 0.01
encoding yield [8]: 0.01
encoding yield [9]: 0.01
encoding yield [10]: 0.01
encoding yield [11]: 0.02
encoding yield [12]: 0.01

B2: engineered M17-Y binder (SEQ ID NO: 61) (designed binder, not shown: small tags and cut ends; large carriers)
chain: TVPDRSEIAGKWYVVALASNTEFYLREKDWVKSAMARISFLGEDELKVSSAVPSPNGCYKVERTWKKTSDDGEVYNSRAAKLKVEVLDTDYKSYAVIYATRVKDGRTDHQMILYSRSPEVSPAATAIFRKLAGERNYTDEMVAMLPRQEECTVDEV
encoding yield [13]: 0.02
encoding yield [14]: 0.02
encoding yield [15]: 0.04
encoding yield [16]: 0.02
encoding yield [17]: 0.05
encoding yield [18]: 0.02
encoding yield [19]: 0.01
encoding yield [20]: 0.02
encoding yield [21]: 0.01
encoding yield [22]: 0.01
encoding yield [23]: 0.03
encoding yield [24]: 0.01
encoding yield [25]: 0.01
encoding yield [26]: 0.02
encoding yield [27]: 0.01
encoding yield [28]: 0.02
encoding yield [29]: 0.01
encoding yield [30]: 0.2
encoding yield [31]: 0.04
encoding yield [32]: 0.01
encoding yield [33]: 0.14
encoding yield [34]: 0.02
encoding yield [35]: 0.12
encoding yield [36]: 0.02
encoding yield [37]: 0.02
encoding yield [38]: 0.03
encoding yield [39]: 0.02
encoding yield [40]: 0.02
encoding yield [41]: 0.01
encoding yield [42]: 0.11
encoding yield [43]: 0.01
encoding yield [44]: 0.05
encoding yield [45]: 0.03
encoding yield [46]: 0.02
encoding yield [47]: 0.02
encoding yield [48]: 0.01
encoding yield [49]: 0.02
encoding yield [50]: 0.03
encoding yield [51]: 0.01
encoding yield [52]: 0.03
encoding yield [53]: 0.01
encoding yield [54]: 0.01

B3: upgraded binder after additional maturation round (SEQ ID NO: 62) (designed binder, not shown: small tags and cut ends; large carriers)
chain: B2 chain with E27G, W30R, A36V, L41Q, G105R, E119D
encoding yield [13]: 0.03
encoding yield [14]: 0.02
encoding yield [15]: 0.05
encoding yield [16]: 0.03
encoding yield [17]: 0.1
encoding yield [18]: 0.03
encoding yield [19]: 0.01
encoding yield [20]: 0.03
encoding yield [21]: 0.02
encoding yield [22]: 0.02
encoding yield [23]: 0.03
encoding yield [24]: 0.02
encoding yield [25]: 0.01
encoding yield [26]: 0.02
encoding yield [27]: 0.02
encoding yield [28]: 0.03
encoding yield [29]: 0.02
encoding yield [30]: 0.28
encoding yield [31]: 0.1
encoding yield [32]: 0.01
encoding yield [33]: 0.18
encoding yield [34]: 0.04
encoding yield [35]: 0.19
encoding yield [36]: 0.04
encoding yield [37]: 0.06
encoding yield [38]: 0.03
encoding yield [39]: 0.04
encoding yield [40]: 0.03
encoding yield [41]: 0.02
encoding yield [42]: 0.14
encoding yield [43]: 0.03
encoding yield [44]: 0.07
encoding yield [45]: 0.03
encoding yield [46]: 0.04
encoding yield [47]: 0.04
encoding yield [48]: 0.01
encoding yield [49]: 0.03
encoding yield [50]: 0.03
encoding yield [51]: 0.01
encoding yield [52]: 0.05
encoding yield [53]: 0.02
encoding yield [54]: 0.02

B4: engineered M44-A binder (SEQ ID NO: 42) (designed binder, not shown: small tags and cut ends; large carriers)
chain: QVSVQPNFQQDKFLGRWFVAGLASNSSWDREKVAALSGAKMVVAPATDGGLNVTRTMLRKNQCETYTGLLQPAGSLGSYSWRSPHPGSTGSESVVETDYDQYALVYGQGSKGPGEDLRAAALWSRTQTPRAELKEKFTAFSKAQGFTEDTIVFLPQTDKCMTEQ
encoding yield [1]: 0.01
encoding yield [2]: 0.01
encoding yield [3]: 0.02
encoding yield [4]: 0.03
encoding yield [5]: 0.01
encoding yield [6]: 0.01
encoding yield [7]: 0.01
encoding yield [8]: 0.02
encoding yield [9]: 0.01
encoding yield [10]: 0.01
encoding yield [11]: 0.02
encoding yield [12]: 0.07
